Target: T1, FLAG-PRMT5 (UniProt O14744 1-637)
T1 construct: PRMT5, wild type; Enriched from HEK293T lysate by one FLAG step; cellular partners such as MEP50 may have come along (surmise); also called FLAG-PRMT5^WT; FLAG-tagged PRMT5; source: HEK293T, transfected, immunopurified on FLAG beads and eluted with FLAG peptide
Experiment: pull-down; His-FUBP1 (from E. coli) and FLAG-PRMT5 (enriched from HEK293T lysate) in vitro, with the PUBLISH peptide as competitor
Details: both partners purified

T1 sequence (O14744 whole entry): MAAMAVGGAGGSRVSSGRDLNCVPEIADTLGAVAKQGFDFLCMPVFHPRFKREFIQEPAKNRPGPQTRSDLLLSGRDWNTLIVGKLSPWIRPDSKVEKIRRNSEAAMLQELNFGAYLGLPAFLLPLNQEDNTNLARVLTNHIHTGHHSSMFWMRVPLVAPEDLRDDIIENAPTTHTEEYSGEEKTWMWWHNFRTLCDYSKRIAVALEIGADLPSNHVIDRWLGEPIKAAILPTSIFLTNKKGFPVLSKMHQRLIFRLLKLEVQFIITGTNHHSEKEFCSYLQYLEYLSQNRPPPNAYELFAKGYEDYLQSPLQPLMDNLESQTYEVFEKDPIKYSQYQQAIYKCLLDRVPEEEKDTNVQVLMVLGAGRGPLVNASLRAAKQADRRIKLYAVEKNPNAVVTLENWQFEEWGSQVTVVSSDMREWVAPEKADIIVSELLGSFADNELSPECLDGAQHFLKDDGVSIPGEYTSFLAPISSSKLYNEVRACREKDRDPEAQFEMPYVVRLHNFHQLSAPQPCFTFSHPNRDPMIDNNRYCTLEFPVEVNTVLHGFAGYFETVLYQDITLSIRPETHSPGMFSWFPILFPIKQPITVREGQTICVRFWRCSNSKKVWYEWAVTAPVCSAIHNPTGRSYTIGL

binding result: binds
B1: PRMT5-mediated FUBP1 methylation abolishing (PUBLISH) peptide (peptide, UniProt Q96AE4 353-367, looked up)
peptide: GPGPGGRGRGRGQGN
notes: FUBP1 amino acids 353-367, with R359/R361/R363; For cells it was delivered as BPAE/peptide nanocomplexes; also called PUBLISH^WT; source: synthetic peptide

— article PMC11405040, “PRMT5-mediated FUBP1 methylation accelerates prostate cancer progression” (The Journal of Clinical Investigation, 2024)
